Source: PMC2946844
Where two headings read alike, the source gives them in different places.

T1: 1xMBD-GFP (UniProt Q9Z2E2 1-75)
T1 sequence: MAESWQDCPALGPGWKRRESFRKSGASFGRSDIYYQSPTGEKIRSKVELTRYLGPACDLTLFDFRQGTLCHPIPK

B1: m_o_o*/m_o_o (dsDNA)
DNA 1: GTAGTTTGCGGTCCGCTGCCCGACC
DNA 2: GGGTCGGGCAGCGGACCGCAAA
modifications: strand 1 5mC9; strand 2 5mC17
B2: o_m_o_o/m_m_o_o (dsDNA)
DNA 1: GAAGTCAACAGGACGGACGCCGCGCAA
DNA 2: CTCTTTCTTTGCGCGGCGTCCGTCCTGTTGACTTCCTCT
modifications: strand 1 5mC18; strand 2 5mC17,5mC21
B3: o_o_m_o/m_m_o_o (dsDNA)
DNA 1: GAAGTCAACAGGACGGACGCCGCGCAA
DNA 2: B2 DNA 2
modifications: strand 1 5mC21; strand 2 5mC17,5mC21
B4: o_o_o_m/m_m_o_o (dsDNA)
DNA 1: GAAGTCAACAGGACGGACGCCGCGCAA
DNA 2: B2 DNA 2
modifications: strand 1 5mC23; strand 2 5mC17,5mC21
B5: o_o_o/m_o_o (dsDNA)
DNA 1: TTTGCGGTCCGCTGCCCGACCC
DNA 2: GGGTCGGGCAGCGGACCGCAAA
modifications: strand 2 5mC17
B6: m_o_o/m_o_o (dsDNA)
DNA 1: TTTGCGGTCCGCTGCCCGACCC
DNA 2: GGGTCGGGCAGCGGACCGCAAA
modifications: strand 1 5mC5; strand 2 5mC17
B7: o_o_m/m_m_m (dsDNA)
DNA 1: TTTGCGGTCCGCTGCCCGACCC
DNA 2: GGGTCGGGCAGCGGACCGCAAA
modifications: strand 1 5mC17; strand 2 5mC5,5mC12,5mC17
B8: o_m_o/m_o_o (dsDNA)
DNA 1: TTTGCGGTCCGCTGCCCGACCC
DNA 2: GGGTCGGGCAGCGGACCGCAAA
modifications: strand 1 5mC10; strand 2 5mC17

How the values were obtained:
Test in all cases: SPR
[1] = biological target: T1, 1xMBD-GFP
[2] = biological target: T1, 1xMBD-GFP; remark: listed apart in the source
[3] = biological target: T1, 1xMBD-GFP; remark: listed apart in the source

Binder	Kd [1]	Kd [2]	Kd [3]
B1	0.87 ± 0.01 µM	–	–
B2	0.377 ± 0.007 µM	–	–
B3	4.97 ± 0.07 µM	–	–
B4	3.94 ± 0.06 µM	–	–
B5	48 ± 2 µM	–	–
B6	4.2 ± 0.04 µM	–	–
B7	–	0.189 ± 0.001 µM	0.209 ± 0.002 µM
B8	8 ± 0.1 µM	–	–
